# Where two headings read alike, the source gives them in different places.
# Experiments:
# [1] = target: Andes virus glycoprotein Gc, wild type (Andes orthohantavirus CHI-7913) (UniProt Q9E006)
# [2] = target: Andes virus glycoprotein Gc, wild type (Andes orthohantavirus CHI-7913) (UniProt Q9E006); remark: listed apart in the source
substance,measurement,setting,value
"Andes virus glycoprotein Gn, wild type (from UniProt Q9E006 19-651)",melting temperature (Tm) of temperature-induced Gn/Gc dissociation,[1],36.3 °C
same,melting temperature (Tm) of temperature-induced Gn/Gc dissociation,[2],37.7 °C
